From article PMC3030368

Tests used:
[1] = target: T1, Nab3 RRM (Saccharomyces cerevisiae, UniProt P38996 321-415); assay: fluorescence anisotropy
T1 sequence: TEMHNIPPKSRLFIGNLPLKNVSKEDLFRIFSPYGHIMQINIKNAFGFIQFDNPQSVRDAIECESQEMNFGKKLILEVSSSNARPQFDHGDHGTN

[2] = target: T2, Nrd1 RRM (UniProt P53617 340-410); assay: fluorescence anisotropy
T2 sequence: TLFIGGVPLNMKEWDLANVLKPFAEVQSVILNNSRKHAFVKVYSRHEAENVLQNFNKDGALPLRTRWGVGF

Question: With UCUU (ssRNA) [UCUU (FA)] as the binder, how does the binding signal [1] read?
Answer: ~10 fold weaker than snR47 (1 order of magnitude; Kd only in figure)

Question: For GUAA (ssRNA), which binding signal [1] is on record?
Answer: > 6 fold lower affinity than UCUU

Question: What about the Kd [2] of the same binder?
Answer: 66 ± 1 µM
